Reference: article PMC13132549
Several values for one entry are separate records, joined by “and”; a condition that tells them apart may be missing. Identical values can stand only once. Values belong to the substance of their own block, whether it stands above or below them.

Legend:
[1] = biological target: RXRγ (NR2B3) ligand-binding domain (LBD) (human) (UniProt P48443); experiment: ITC; 500 µM Nur77 LBD titrated into 50 µM RXRγ LBD preincubated with vehicle (DMSO) or RXR ligand; 5 °C; 0.25% DMSO; homodimer competition model (SEDPHAT) for the data without ligand
[2] = biological target: RXRα LBD (Homo sapiens) (UniProt P19793); experiment: ITC; details: cited from earlier work
[3] = biological target: RXRα (NR2B1) ligand-binding domain (LBD); experiment: SEC-MALS; 100 µL of each protein at 5 mg/mL (180 µM) injected; 40 mM potassium phosphate pH 7.4, 200 mM KCl; 25 °C
[4] = biological target: RXRγ (NR2B3) ligand-binding domain (LBD) (human) (UniProt P48443); experiment: as above

UniProt P19793, sequence (P19793 227-458): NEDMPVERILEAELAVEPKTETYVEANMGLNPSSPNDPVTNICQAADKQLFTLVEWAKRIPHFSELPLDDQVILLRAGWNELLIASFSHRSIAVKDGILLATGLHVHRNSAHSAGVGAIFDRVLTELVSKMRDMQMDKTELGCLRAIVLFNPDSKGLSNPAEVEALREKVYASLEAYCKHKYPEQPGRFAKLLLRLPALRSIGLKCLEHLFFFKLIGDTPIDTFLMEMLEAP

Substance: Nur77 (NR4A1) ligand-binding domain (LBD) (from UniProt P22736 356-598) (domain or fragment)
Kd [1]: 9 µM

Substance: Nurr1 LBD (from UniProt P43354)
Kd [2]: 4 µM

stoichiometry N [3]: 2 and 4
Substance: RXRα (NR2B1) ligand-binding domain (LBD) (domain or fragment)

Substance: RXRγ (NR2B3) ligand-binding domain (LBD) (from UniProt P48443 226-463) (domain or fragment)
stoichiometry N [4]: 2 and 4
